From patent publication US20110195027A1 (KOREA RESEARCH INSTITUTE OF BIOSCIENCE AND BIOTECHNOLOGY, published 2011)
Substitutions are numbered along the chain they refer to.

B1: CD9 5G4 scFv monoclonal phage antibody (scFv, V domains shown)
VH: QVQLVSSGAEVKKPGASVKLSCKASGYTFSSYWMHWVRQAPGQRLEWMGEINPGNGHTNYNEKFKSRVTITVDKSASTAYMELSSLRSEDTAVYYCAREDDIEDAFDFWGQGTMVTVSS
VL: DIQMTQSPSSVSASVGDRVTITCRASQSISSWLAWYQQKPGKAPKLLIYGASNLQSGVPSRFSGSGSGTDFTLTISSLHPEDFATYFCHKTDSFPLTFGGGTKVEIK
B2: CD9 3F3 scFv monoclonal phage antibody (scFv, V domains shown, not shown: small tags and cut ends)
VH: QMQLVQSGAEVKKPGASVKLSCKASGYTFSSYWMHWVRQAPGQRLEWMGEINPGNGHTNYNEKFKSRVTITVDKSASTAYMELSSLRSEDTAVYYCGQDNSPPRIWGQGTLITVSS
VL: QSALTQPASVSGSPGQSITISCTGTSSDVGGYNHVSWYQQHPGKAPKLLIYDVSNRPSGVSGRFSGSKSGNTASLTISGLQAEDEANYYCGSYTSSSTFEVFGTGTKVTVL
B3: CD9 8A scFv monoclonal phage antibody (scFv, V domains shown)
VH: QVQLVQSGAEVKKPGASVKLSCKASGYTFSSYWMHWVRQAPGQRLEWMGEINPGNGHTNYNEKFKSRVTITVGKSASTAYMELSSLRSEDTAVYYCAREGVSAAGGLDHWGQGTQITVSS
VL: DIQMTQSPSSLSVSTGARVTITCRASQGISNYLAWYQQKPGKAPKLLIYAASTLQSGVPSRFSGSGSGTDFTLTISSLQPEDFATYYCQQLNSYPLTFGGGTKVEIK
notes: also called 8A3
B4: CD9 12F scFv monoclonal phage antibody (scFv, V domains shown)
VH: QVQLVQSGAEVKKPGASVKLSCKASGYTFSSYWMHWVRQAPGQRLEWMGEINPGNGHTNYNEKFKSRVTITVDKSASTAYMELSSLRSEDTAVYYCARELEEGAFDIWGQGTMVTVSS
VL: B3 VL with S12P, V13A, T15V, A17D, N31S, L91Y, N92D, Y94V
notes: also called 12F3
B5: CD9 11G scFv monoclonal phage antibody (scFv, V domains shown)
VH: B2 VH with M2V, F29S, I112V
VL: DIQMTQSPSTLSASVGDRVTITCRASQTIGNLAWFQQKPGKAPKLLIYKASSLESGVPSRFSGSGSGTEFTLTISSLQPDDFATYYCQQYSDYWTFGQGTKVEIK
notes: also called 11G3
B6: 10E4 whole IgG (antibody, V domains shown)
VH: MAQVQLVQSGGGLVQPGRSLRLSCAASGFTFDDFAMHWVRQAPGKGLEWVAGISWNSGDIRYADSVRGRFTISRDNAKNSLFLQMNSLRAEDTAVYYCARSPVGTTYFDYWGQGALITVSS
VL: DIQMTQSPSSLSASVGDRVTITCRASQGISSYLAWYQQKPGKAPKLLIYAASTLQSEVPSRFSGSGSGTDFTLTISSLQPEDFATYYCQQLNIFPLTFGGTKVDIKR
notes: Whole IgG made from the 10E4 phage clone in pNATAB H and pNATAB L vectors; the heavy chain PCR primer starts at QVQLVQS; also called 10E4 human antibody; anti-CD9(10E4) IgG

Tests used:
[1] = target: T1, CD9-ECL2(CD9 extracellular domain 2)-Fc antigen (human); test: phage ELISA; CD9 OD/a-myc OD
T1 construct: also called CD9-ECL2-Fc; CD9-EC2-Fc

[2] = target: T1, CD9-ECL2(CD9 extracellular domain 2)-Fc …; test: phage ELISA; CD9 OD/a-myc OD (repeats Table 2)
[3] = target: T1, CD9-ECL2(CD9 extracellular domain 2)-Fc …; test: phage ELISA
Method: (§1) A 96-well immuno-plate was coated with CD9-EC2-Fc antigen (0.1 μg/well) at 4° C. for 16 hours, followed by blocking with skim milk dissolved in PBS (4%). Each well of the 96-well immuno-plate was washed with 0.2 ml of PBS-tween20 (0.05%). 100 ul of the 3rd-4th panning monoclonal scFV-phage was added to each well, followed by reaction at room temperature for 2 hours. Each well was washed four times with 0.2 ml of PBS-tween20 (0.05%). The secondary antibody anti-M13-HRP was diluted at 1:2000, followed by reaction at room temperature for 1 hour. The plate was washed with 0.2 ml of PBS-tween20 (0.05%), followed by color development. OD₄₉₀ was measured.
Target sequence in this assay (chain, as listed by the source limits assumed): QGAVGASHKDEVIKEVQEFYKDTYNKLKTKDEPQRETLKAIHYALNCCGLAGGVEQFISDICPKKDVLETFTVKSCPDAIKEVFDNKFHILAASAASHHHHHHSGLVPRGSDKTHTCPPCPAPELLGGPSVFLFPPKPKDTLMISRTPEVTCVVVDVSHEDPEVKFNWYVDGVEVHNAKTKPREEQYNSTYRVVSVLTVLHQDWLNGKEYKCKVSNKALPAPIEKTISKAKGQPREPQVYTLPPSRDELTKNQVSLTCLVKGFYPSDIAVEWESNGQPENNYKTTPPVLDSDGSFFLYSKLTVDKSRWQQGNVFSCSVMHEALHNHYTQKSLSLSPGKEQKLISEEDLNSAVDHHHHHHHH

[4] = target: T2, Fc; test: phage ELISA
T2 construct: Control antigen of the phage ELISA
Method: as §1

[5] = target: T1, CD9-ECL2(CD9 extracellular domain 2)-Fc …; test: phage ELISA; CD9 OD/a-myc OD; remark: listed apart in the source
Method: as §1
Target sequence in this assay (chain, as listed by the source limits assumed): as above

[6] = target: T1, CD9-ECL2(CD9 extracellular domain 2)-Fc …; test: phage ELISA; CD9 OD/a-myc OD (repeats Table 3)
Method: as §1
Target sequence in this assay (chain, as listed by the source limits assumed): as above

[7] = target: T3, CD9-ECL2 mutant M4 (human, with rat residues, UniProt P21926 112-195); test: ELISA: antibody coated, supernatant, anti-His-HRP
T3 construct: also called mutation 4; not shown: Myc and 8x His tag of the pYK His only vector
T3 chain: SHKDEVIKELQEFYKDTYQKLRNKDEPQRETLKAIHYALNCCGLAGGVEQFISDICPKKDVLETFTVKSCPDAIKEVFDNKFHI
Method: (§2) Each supernatant was loaded by 24 ul at 100 V for 2 hours, and then transferred to NC membrane (Millipore Cat. No. HATF00010) at 85V for 2 hours. The membrane finished with transfer was blocked by using blocking buffer (4% skim milk in TEST) at room temperature for 1 hour. A-His-HRP (Sigma, Cat. No. A7058) was diluted with blocking buffer (4% skim milk in TBST) at 1:4000 and binding was induced at room temperature for 1 hour. The membrane was washed with TBST 5 times every 10 minutes, followed by development (Intron, Cat. No. 12145). Expression of each mutant was confirmed by Western blotting (FIG. 15). Based on that, epitopes of ALB6 and 10E4 were confirmed by ELISA. A 96-well immuno-plate (NUNC) was coated with coating buffer comprising ALB6 and 10E4 (100 ng/100 ul/well each) at 4° C. for 16 hours, followed by blocking with 4% PBST (skim milk dissolved in 1× PBS) for 2 hours. Each well of the 96-well immuno-plate was washed three times with 0.2 ml of PBST (PBS-tween20 (0.05%)). From the supernatants obtained on day 5 confirmed to contain a large number of mutants confirmed by Western blotting, wild type, M1 and M4 supernatants were selected. 100 ul of the selected supernatant was added to each well of the plate, followed by reaction for 2 hours. The plate was washed again. The secondary antibody anti-His-HRP (Sigma A7058) was diluted at 1:1000, followed by reaction at room temperature for 30 minutes. Washing was performed three times by the same manner as described above. OPD tablet (Sigma 8787-TAB) was added to PC buffer [C₆H₈O₇H₂O (Sigma, C0706) 5.1 g, Na₂HPO₄ (Sigma, 57907 7.3 g)] to make substrate solution, which was added to each well by 100 ul/well, followed by color development for 10 minutes. Color development was terminated by adding 2 M H₂SO₄ solution. Then, OD₄₉₀ was measured by using ELISA reader (Molecular Device).

[8] = target: T4, p-Myc-His CD9-ECL2 wild type (human); test: ELISA: antibody coated, supernatant, anti-His-HRP
T4 chain: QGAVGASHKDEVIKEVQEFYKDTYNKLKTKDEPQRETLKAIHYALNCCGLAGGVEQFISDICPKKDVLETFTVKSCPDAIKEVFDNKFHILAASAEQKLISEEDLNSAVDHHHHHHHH
Method: as §2

[9] = target: T5, CD9-ECL2 mutant M1 (human, with rat residues, UniProt P21926 112-195); test: ELISA: antibody coated, supernatant, anti-His-HRP
T5 construct: also called mutation 1; not shown: Myc and 8x His tag of the pYK His only vector
T5 chain: T3 chain with L10V, Q19N, R22K, N23T, K75D, D79H, N80S
Method: as §2

Binder	Ratio [1]	Ratio [2]	OD490 [3]	OD490 [4]	Ratio [5]	Ratio [6]	OD490 [7]	OD490 [8]	OD490 [9]
B1	1.04	1.04							
B2			0.961	0.0394	0.918	0.918			
B3			1.61	0.088	0.73	0.73			
B4			1.16	0.124	0.669	0.668			
B5			2.24	0.0441	1.23	1.23			
B6							0.398	0.375	0.084
